# Assay results reported in the supplement of paper PMC5949888.
# Test system: Saccharomyces cerevisiae PS128 hsf1 delta, HSF1(1-493) fusion
# Experiment: growth estimate (transactivation domain function in HSF1 fusion, heat-shock survival) (a.u. (slope of normalised read count over time)); higher = stronger growth at 37°C, i.e. more transactivation activity
# Conditions: library: design library
# Procedure, shortened: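 Transactivation-domain oligos were designed and fused to a truncated yeast HSF1 (amino acids 1–493), then expressed in a yeast strain lacking hsf1. Replica plating onto –trp 5-FOA plates was followed by incubation at 30°C or 37°C for 0, 2, 4, 6 and 8 days. Inserts were amplified by PCR and sequenced on an Illumina MiSeq as six barcoded replicates from a single experiment. The growth estimate is the slope of a robust linear fit over time of read counts normalised to sample totals and to starting count.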
row,Sequence,growth estimate
1,EFNPLLDLDFILSN,< -0.25
2,MLSSHPFSVDTSALLDLFSP,-0.195
3,VADDIWKELLSEDL,3.97
4,DLDESWDYIGETTE,-0.243
5,DELSWIIELLRKDG,< -0.25
6,VADGIWEELLSEDL,-0.0444
7,EDLYSIAWSDVY,< -0.25
8,LFDYRFLFGNDFA,-0.216
9,EFNDLLDLDFILSG,1.41
10,VAADIWEELLSEDL,1.83
11,EFNDLLDLDFILSK,0.632
12,DLDESWDAIFETTE,< -0.25
13,EDDDEFKLWDSML,0.0998
14,EDDDEFSLRDSML,-0.248
15,DELSWIIELLPKDG,-0.225
16,TMDDVYNYLFDP,1.58
17,VADDIWEELLSEDA,-0.0522
18,MLSSHGFSVDTSALLDRFSP,-0.229
19,QQNPEIAQLWDFN,-0.234
20,LFDYDGLFGNDFA,0.114
21,DFDLDMLGDFDLAMLG,-0.0527
22,KLDESWDYIFETTE,-0.0907
23,MLSKHGFSVDTSALLDLFSP,-0.229
24,LFDADFLFGNDFA,0.761

row,Sequence,growth estimate
1,QQKGEIAQLWDFN,< -0.25
2,TKDDVYNYLFDD,-0.238
3,MLSSHGFSVDTSALLDLGSP,-0.228
4,VADDIWEPLLSEDL,-0.234
5,PEFPGIELQELQELQALLGQ,-0.226
6,DELSWIIELLAKDG,-0.221
7,EDDDEFSRWDSML,-0.0194
8,LFDYDFLFGPDFA,10.1
9,VRDDIWEELLSEDL,0.609
10,RFDYDFLFGNDFA,2.62
11,TMDDVYAYLFDD,4.4
12,QQNGEIAQLADFN,-0.24
13,PEFPGIELQALQELQALLQQ,0.169
14,EDLRSILWSDVY,< -0.25
15,DLDESWDYIFATTE,1.5
16,EDDDEFSLWDSKL,< -0.25
17,EDDDEFSLKDSML,< -0.25
18,EDLYSILWSDGY,0.303
19,VADDIWEELLSKDL,2.92
20,DELSWIIELLEPDG,7.58
21,EFNDLLDLRFILSN,< -0.25
22,PFPDTQDDFLKGWRSEEAQ,-0.242
23,EFADLLDLDFILSN,0.75
24,RLDESWDYIFETTE,-0.191

row,Sequence,growth estimate
1,DELSWIRELLEKDG,1.03
2,GELSWIIELLEKDG,-0.152
3,TMDDVYNKLFDD,< -0.25
4,DLDESWKYIFETTE,-0.0397
5,MLKSHGFSVDTSALLDLFSP,-0.17
6,EDPDEFSLWDSML,1.36
7,DLDESRDYIFETTE,-0.153
8,EDDDEPSLWDSML,0.0815
9,DFDLDMLGGFDLDMLG,2.09
10,MLSSHGFSVATSALLDLFSP,-0.234
11,VADDIWEELLSERL,5.09
12,KFDYDFLFGNDFA,1.06
13,LFDYDFLAGNDFA,0.0054
14,PFPDAQDDFLKWWRSEEAQ,-0.158
15,TRDDVYNYLFDD,-0.222
16,EDLKSILWSDVY,< -0.25
17,DELSWIIELLEKDK,0.564
18,LFDYDFLFGADFA,1.91
19,MLSSHGFSVDPSALLDLFSP,-0.0885
20,PFPDTQDDFLRWWRSEEAQ,-0.0276
21,PFPDTQDDFLKWRRSEEAQ,-0.221
22,ADLYSILWSDVY,-0.203
23,DGLSWIIELLEKDG,-0.173
24,LFDYDKLFGNDFA,-0.159

row,Sequence,growth estimate
1,VADDIWEELLKEDL,7.64
2,DLDPSWDYIFETTE,0.39
3,LFDYDFLFANDFA,2.92
4,MLSSHGFSVDTSALGDLFSP,-0.213
5,EDLGSILWSDVY,-0.0522
6,DRLSWIIELLEKDG,< -0.25
7,GEFPGIELQELQELQALLQQ,-0.114
8,EDDDEFSLWDSMG,-0.226
9,PKPDTQDDFLKWWRSEEAQ,-0.158
10,PEFPGIELQELQELQAALQQ,-0.23
11,PFGDTQDDFLKWWRSEEAQ,0.304
12,MLGSHGFSVDTSALLDLFSP,0.0043
13,MRSSHGFSVDTSALLDLFSP,-0.241
14,LFDYDFLFGNDFA,6.94
15,ALSSHGFSVDTSALLDLFSP,0.065
16,PEFPGIELQELQELRALLQQ,< -0.25
17,DELSKIIELLEKDG,< -0.25
18,MLSSHRFSVDTSALLDLFSP,-0.227
19,DELSWKIELLEKDG,< -0.25
20,AMDDVYNYLFDD,2.28
21,VADDIWEELASEDL,< -0.25
22,DLDESWDYIAETTE,-0.174
23,DELKWIIELLEKDG,-0.0445
24,LFDYGFLFGNDFA,1.29

row,Sequence,growth estimate
1,DLDESWDYIFEPTE,1.97
2,MLSSAGFSVDTSALLDLFSP,-0.0464
3,PQNGEIAQLWDFN,-0.229
4,PEFGGIELQELQELQALLQQ,< -0.25
5,VADDIWEELLSRDL,6.53
6,PEFPGIELQELPELQALLQQ,-0.22
7,VADDIWEERLSEDL,< -0.25
8,MLSSHGFSVDTSALLPLFSP,-0.158
9,QQNGEIAQLWDFN,-0.146
10,DELSWIIELLEKGG,0.213
11,PEFPAIELQELQELQALLQQ,-0.181
12,MLSSHGGSVDTSALLDLFSP,-0.112
13,MLSSHGFSVDTSKLLDLFSP,-0.143
14,LFDYDFKFGNDFA,-0.229
15,DFDLDMLGDFDLGMLG,0.517
16,EDLYSGLWSDVY,-0.186
17,PEFPGIEKQELQELQALLQQ,0.269
18,PFPDTQDDFLKWWRSEEKQ,< -0.25
19,PEFPGIELQELQERQALLQQ,< -0.25
20,DFDLDMLGRFDLDMLG,1.8
21,PFPDTQRDFLKWWRSEEAQ,-0.245
22,DPDLDMLGDFDLDMLG,4.23
23,EDLYSIPWSDVY,-0.196
24,PFPDTQDDPLKWWRSEEAQ,< -0.25

row,Sequence,growth estimate
1,DELSWIIERLEKDG,< -0.25
2,EDLYSILWADVY,-0.181
3,GFNDLLDLDFILSN,-0.0099
4,LFDYDFLFGNDFR,3.17
5,MLSSHGFSVDTSGLLDLFSP,0.0909
6,GADDIWEELLSEDL,1.28
7,LFDYDFLFGNDFG,0.038
8,TMDDVPNYLFDD,-0.232
9,QQNAEIAQLWDFN,< -0.25
10,EDDDEFPLWDSML,0.199
11,EFNDLLDLDFRLSN,0.0126
12,TMDDVYNYLFAD,1.32
13,PEFPGIELQELQELGALLQQ,-0.221
14,EFKDLLDLDFILSN,0.512
15,QQNGEIAQLKDFN,-0.215
16,VADDIWEELLSEDG,0.0334
17,EDDDRFSLWDSML,-0.141
18,LFPYDFLFGNDFA,1.32
19,TMDDVYNYLFPD,1.69
20,EFNDLLDLDFIRSN,-0.0675
21,VADDIWEELGSEDL,-0.221
22,VADDIWEEKLSEDL,< -0.25
23,LFDYDFLFGNGFA,1.45
24,QQNGEIAQLWDGN,-0.163

row,Sequence,growth estimate
1,VADDRWEELLSEDL,< -0.25
2,TMKDVYNYLFDD,< -0.25
3,LADYDFLFGNDFA,2.67
4,TMDDVYNYLADD,0.274
5,EPLYSILWSDVY,-0.136
6,DELSWIIEALEKDG,0.0037
7,DFDLDMLRDFDLDMLG,11.1
8,PFPDTQDDFLAWWRSEEAQ,2.37
9,TMDDVYNYLKDD,< -0.25
10,LFDYDFLFGNDPA,0.915
11,EDDDEFRLWDSML,-0.0562
12,PFPDTQGDFLKWWRSEEAQ,-0.248
13,QQPGEIAQLWDFN,-0.242
14,QQNGEIAQLWDFR,-0.245
15,EDDDGFSLWDSML,0.241
16,MLSSHGFSPDTSALLDLFSP,0.374
17,DFDLDMLGDFDLDMGG,16.5
18,DFDLDMLGDFDRDMLG,0.584
19,QQNGEIAQLRDFN,< -0.25
20,EFNDLLDKDFILSN,-0.227
21,QQNGEIAQGWDFN,-0.247
22,KMDDVYNYLFDD,-0.148
23,PEFPPIELQELQELQALLQQ,-0.0915
24,GDDDEFSLWDSML,1.64

row,Sequence,growth estimate
1,DFDADMLGDFDLDMLG,6.93
2,PDLYSILWSDVY,-0.202
3,TMDDVKNYLFDD,< -0.25
4,LFDYDRLFGNDFA,-0.0061
5,TMDDVYNYRFDD,-0.0969
6,PFPDTPDDFLKWWRSEEAQ,0.819
7,PFNDLLDLDFILSN,0.542
8,EDDDEFSLGDSML,< -0.25
9,QQGGEIAQLWDFN,0.0021
10,VADDIWEKLLSEDL,2.03
11,DLDESWDYIFETRE,0.311
12,MLSSHGFSVDTSALLDLKSP,-0.096
13,EDDDEFSLWRSML,-0.116
14,EDLYSILWSDVY,0.971
15,TMDDVYNYLFDR,-0.243
16,VAGDIWEELLSEDL,0.447
17,PFPDTQDRFLKWWRSEEAQ,< -0.25
18,VADDIWEELKSEDL,-0.188
19,EDDKEFSLWDSML,-0.135
20,DELSWIIKLLEKDG,-0.233
21,DELSAIIELLEKDG,< -0.25
22,LFDYDALFGNDFA,0.627
23,DELSRIIELLEKDG,< -0.25
24,DLDEPWDYIFETTE,1.58
